For this experiment, the target named is HA-hFc probe: H1N1 A/California/04/2009 HA ectodomain fused to human IgG1 Fc. In words: flow cytometry on cells. As to conditions: parent: est. 1.0; read off a plot.
“Flag-tagged fTfR-5J8 receptor, WT (Flag+) (from UniProt Q9MYZ3) R97H”: the ratio to parent is 0.84.
Turning to “Flag-tagged fTfR-5J8 receptor, WT (Flag+) (from UniProt Q9MYZ3) N32A”, the ratio to parent stood at 0.94.
Under “Flag-tagged fTfR-5J8 receptor, WT (Flag+) (from UniProt Q9MYZ3) I93A” stands 0.98.
Under “Flag-tagged fTfR-5J8 receptor, WT (Flag+) (from UniProt Q9MYZ3) D100bL” stands 0.28; under “Flag-tagged fTfR-5J8 receptor, WT (Flag+) (from UniProt Q9MYZ3) R97A; P100aA; I93A”, 0.42.
Take “Flag-tagged fTfR-5J8 receptor, WT (Flag+) (from UniProt Q9MYZ3) I93D”: the ratio to parent was 0.97.

(Values after article PMC12090727.)
